The assay has as its target FLAG-BLM (Bloom's Syndrome helicase) (human) (UniProt P54132).
Chain of UniProt P54132 (P54132 whole entry): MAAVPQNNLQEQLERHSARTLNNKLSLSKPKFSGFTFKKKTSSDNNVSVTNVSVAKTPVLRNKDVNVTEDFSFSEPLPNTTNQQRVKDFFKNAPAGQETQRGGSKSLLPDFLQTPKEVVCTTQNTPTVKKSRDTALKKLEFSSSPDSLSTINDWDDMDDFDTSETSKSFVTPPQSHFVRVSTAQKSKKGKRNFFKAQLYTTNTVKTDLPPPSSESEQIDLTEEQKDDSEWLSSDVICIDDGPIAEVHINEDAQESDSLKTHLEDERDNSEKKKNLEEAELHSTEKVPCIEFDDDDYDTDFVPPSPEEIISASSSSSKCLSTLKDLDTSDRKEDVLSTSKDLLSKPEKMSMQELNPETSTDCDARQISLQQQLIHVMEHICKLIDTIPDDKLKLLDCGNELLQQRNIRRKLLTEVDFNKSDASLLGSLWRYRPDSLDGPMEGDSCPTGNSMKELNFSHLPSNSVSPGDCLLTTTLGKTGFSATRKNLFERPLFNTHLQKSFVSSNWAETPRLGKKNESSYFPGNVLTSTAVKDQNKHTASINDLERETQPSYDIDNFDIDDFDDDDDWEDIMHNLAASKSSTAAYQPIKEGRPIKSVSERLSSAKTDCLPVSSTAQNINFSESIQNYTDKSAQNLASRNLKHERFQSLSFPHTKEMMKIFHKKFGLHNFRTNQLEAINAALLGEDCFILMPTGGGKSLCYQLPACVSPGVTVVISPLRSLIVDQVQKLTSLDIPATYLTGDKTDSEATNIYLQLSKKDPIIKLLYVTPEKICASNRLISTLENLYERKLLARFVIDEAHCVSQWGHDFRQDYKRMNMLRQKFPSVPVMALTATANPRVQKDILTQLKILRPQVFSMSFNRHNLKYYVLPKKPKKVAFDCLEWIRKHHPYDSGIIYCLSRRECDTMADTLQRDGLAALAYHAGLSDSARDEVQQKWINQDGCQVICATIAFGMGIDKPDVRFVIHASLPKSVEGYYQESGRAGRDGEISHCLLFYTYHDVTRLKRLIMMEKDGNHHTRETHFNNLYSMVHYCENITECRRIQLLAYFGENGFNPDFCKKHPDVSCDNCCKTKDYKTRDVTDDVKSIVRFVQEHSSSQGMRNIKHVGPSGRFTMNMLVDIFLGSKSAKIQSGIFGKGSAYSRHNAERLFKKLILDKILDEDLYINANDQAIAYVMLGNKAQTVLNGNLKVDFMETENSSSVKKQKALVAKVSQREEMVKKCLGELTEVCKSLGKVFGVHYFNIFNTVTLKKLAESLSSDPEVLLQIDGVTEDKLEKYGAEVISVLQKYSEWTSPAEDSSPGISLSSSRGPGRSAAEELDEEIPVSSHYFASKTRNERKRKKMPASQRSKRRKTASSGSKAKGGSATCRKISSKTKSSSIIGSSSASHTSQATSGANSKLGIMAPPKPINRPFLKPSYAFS

“phosphorylated human RPA (pRPA) (from UniProt P27694 1-616; P15927 1-270) (complex)” gave a fold decrease in BLM/EXO1 resection processivity after addition of pRPA of 3 fold and a fraction of BLM/DNA2 molecules that stopped resecting DNA upon addition of pRPA of 30%.

These data come from publication doi:10.1101/517771.
